Source: patent US7390643B2, “Geranyl diphosphate synthase molecules, and nucleic acid molecules encoding same” (Washington State University Research Foundation, priority 2002, dated 2008)
Several values for one entry are separate records, joined by “and”; a condition that tells them apart may be missing. Identical values can stand only once.

Legend:
[1] = test system: C=C(C)CCO[P@@](=O)(O)OP(=O)(O)O; assay: purified protein, by the assay type; conditions: 70.0 °C; for kcat: other: IPP and DMAPP as co-substrates, MgCl2 cofactor; for Km: other: apparent, at saturating concentrations of DMAPP (350 mM [sic]), means ± SD of three determinations
Protocol: (§1) The assay procedures and methods for product analysis were similar to those previously described (C. Burke and R. Croteau, J. Biol. Chem. 277:3141-3149, 2002), except that for radio-GC a Raga (Raytest) radio-detector connected in-line to a Series 600 (Gow-Mac) chromatograph was employed with a 5% phenyl polysiloxane (ZB-5; Phenomenex) capillary column under hydrogen gas flow (70° C. for 5 min. followed by an 8° C. per min. ramp to 240° C. for 5 min).
(§2) Molecular weight determination and kinetic evaluation. […] For kinetic evaluation, the standard prenyltransferase assay was performed (C. Burke and R. Croteau, J. Biol. Chem. 277:3141-3149, 2002) but the reaction was terminated after 4 min. to ensure linearity in the rate measurements.
(§3) Kinetic characterization of the GPP synthases (SEQ ID NOS:12, 16, and 20).

[2] = test system: CC(C)=CCOP(=O)(O)OP(=O)(O)O; assay: purified protein, by the assay type; conditions: other: apparent; at saturating concentrations of IPP (212 mM [sic]); means ± SD of three determinations; 70.0 °C
Protocol: as §1, §2, §3

In the case of “Grand fir (Abies grandis) geranyl diphosphate synthase AgGPPS3, N-terminally truncated (E92M), C-terminal His6 tag, SEQ ID NO: 20 (Abies grandis; E92M)”, the kcat [1] is reported as 0.47 s⁻¹ and 0.5 ± 0.1 s⁻¹, the Km [1] is reported as 44 ± 7 µM and the Km [2] is reported as 82 ± 5 µM.

“Grand fir (Abies grandis) geranyl diphosphate synthase AgGPPS2, N-terminally truncated (E86M), C-terminal His6 tag, SEQ ID NO: 12 (Abies grandis; E86M)” gave a kcat [1] of 1.8 s⁻¹, a Km [1] of 55 ± 4 µM and a Km [2] of 90 ± 1 µM.

Substance “Grand fir (Abies grandis) geranyl diphosphate synthase AgGPPS1, N-terminally truncated (E88M), C-terminal His6 tag, SEQ ID NO: 16 (Abies grandis; E88M)” has a kcat [1] of 1.6 s⁻¹, a Km [1] of 44 ± 5 µM and a Km [2] of 163 ± 13 µM.
